From PMC4934914, “Crystal Structure of Bacillus subtilis Cysteine Desulfurase SufS and Its Dynamic Interaction with Frataxin and Scaffold Protein SufU” (PLoS ONE, 2016)

B1: Bacillus subtilis cysteine desulfurase SufS (enzyme)
chain: MNITDIREQFPILHQQVNGHDLVYLDSAATSQKPRAVIETLDKYYNQYNSNVHRGVHTLGTRATDGYEGAREKVRKFINAKSMAEIIFTKGTTTSLNMVALSYARANLKPGDEVVITYMEHHANIIPWQQAVKATGATLKYIPLQEDGTISLEDVRETVTSNTKIVAVSHVSNVLGTVNPIKEMAKIAHDNGAVIVVDGAQSTPHMKIDVQDLDCDFFALSSHKMCGPTGVGVLYGKKALLENMEPAEFGGEMIDFVGLYESTWKELPWKFEAGTPIIAGAIGLGAAIDFLEEIGLDEISRHEHKLAAYALERFRQLDGVTVYGPEERAGLVTFNLDDVHPHDVATVLDAEGIAVRAGHHCAQPLMKWLDVTATARASFYLYNTEEEIDKLVEALQKTKEYFTNVF
modifications: pyridoxal-5'-phosphate bound to Lys224 as an aldimine; Cys361-persulfide (in the crystal)
notes: cysteine desulfurase SufS of Bacillus subtilis; The structure 'could be built to completeness'; also called BsSufS
B2: Bacillus subtilis scaffold protein SufU (natural protein)
chain: MSFNANLDTLYRQVIMDHYKNPRNKGVLNDSIVVDMNNPTCGDRIRLTMKLDGDIVEDAKFEGEGCSISMASASMMTQAIKGKDIETALSMSKIFSDMMQGKEYDDSIDLGDIEALQGVSKFPARIKCATLSWKALEKGVAKEEGGN
notes: Fe-S cluster scaffold protein SufU of Bacillus subtilis; also called BsSufU

Experiments:
[1] = target: the molecule itself; test: crystal structure; BsSufS crystallised at 20 mg/ml in 0.1 M HEPES pH 7.5, 50% (v/v) PEG 400, 20°C; one molecule in the asymmetric unit, homodimer across the crystallographic symmetry axis; 1.7 Å
[2] = target: B1; test: HDX-MS; 60 μM of each component in 25 mM Tris-Cl pH 7.5, 100 mM NaCl; exchange in D2O buffer at 25°C for 15, 30, 60 or 600 s; online pepsin digestion; conditions: both partners purified
[3] = target: B1; test: MST; labelled BsFra (0.25 μM) mixed 1:1 with a dilution series of the partner (560 μM to 0.030 μM); 25 mM Tris-Cl, 100 mM NaCl, 10 mM 2-mercaptoethanol, pH 7.5; 25°C; Hill model; average of three measurements; conditions: both partners purified
[4] = target: B2; test: as above; conditions: both partners purified
BsSufS/BsSufU complex = target: T1, BsSufS/BsSufU complex (Bacillus subtilis, UniProt O32164 1-406; O32163 1-147); test: as above; conditions: both partners purified
T1 construct: cysteine desulfurase SufS of Bacillus subtilis, as the chain of m1; scaffold protein SufU of Bacillus subtilis, as the chain of m2; SufS is described as a homodimer; also called BsSufU/BsSufS; SufS/SufU complex; copies: 2 +

[5] = target: B2; test: HDX-MS; 60 μM of each component in 25 mM Tris-Cl pH 7.5, 100 mM NaCl; exchange in D2O buffer at 25°C for 15, 30, 60 or 600 s; online pepsin digestion; conditions: both partners purified

For B1, which “stoichiometry N” value [1] is on record?
Its value is 2.

Does B2 bind [2]?
Result: binds

B3: fluorophore-labelled BsFra (natural protein, Bacillus subtilis)
chain: MDVFSEYLAGIADPFHRERTEEVLTWIKNKYPNLHTEIKWNQPMFTDHGTFIIGFSVSKKHLAVAPEKVTIAHVEDDIVKAGYDYTEQLIRIPWNGPVDYTLLEKMIEFNILDKADCSTFWRK
modifications: labelled with the Monolith NT.115 Protein Labeling Kit RED MALEIMID (cysteine-reactive)
notes: frataxin homolog Fra (formerly YdhG) of Bacillus subtilis, as the chain of m3; Same protein as m3, with a red fluorophore on cysteine for MST; also called labeled BsFra; fluorophore-tagged frataxin
B3 was tested. Which Kd [3] did it give?
Its Kd is 50.6 ± 17.4 µM.

And the Kd [4]?
The Kd was 57.4 ± 13.8 µM.

What about the Kd (BsSufS/BsSufU complex) of the same binder?
Its Kd is 32.5 ± 3.6 µM.

B4: Bacillus subtilis frataxin homolog Fra (natural protein)
chain: MDVFSEYLAGIADPFHRERTEEVLTWIKNKYPNLHTEIKWNQPMFTDHGTFIIGFSVSKKHLAVAPEKVTIAHVEDDIVKAGYDYTEQLIRIPWNGPVDYTLLEKMIEFNILDKADCSTFWRK
notes: frataxin homolog Fra (formerly YdhG) of Bacillus subtilis; Unlabelled form, used in H/DX and activity assays; also called BsFra; YdhG (former name)
What does the source list for B4?
binding result [2]: binds; binding result [5]: binds
